B1: H2-Kb / Ed21 (parent complex)
chain 1: AQSVTQPDARVTVSEGASLQLRCKYSYFGTPYLFWYVQYPRQGLQLLLKYYPGDPVVQGVNGFEAEFSKSNSSFHLRKASVHWSDWAVYFCAVSMSGGYKVVFGSGTRLLVSP
chain 2: DSGVVQSPRHIIKEKGGRSVLTCIPISGHSNVVWYQQTLGKELKFLIQHYEKVERDKGFLPSRFSVQQFDDYHSEMNMSALELEDSAMYFCASSPRQTDYTFGSGTRLLVI
chain 3: not shown
chain 4: IQKTPQIQVYSRHPPENGKPNILNCYVTQFHPPHIEIQMLKNGKKIPKVEMSDMSFSKDWSFYILAHTEFTPTETDTYACRVKHDSMAEPKTVYWDRDM
chain 5: SIINFEKL
B2: H2-Kb / Ed5 (parent complex)
chain 1: GDSVTQTEGPVTVSESESLIINCTYSATSIAYPNLFWYVRYPGEGLQLLLKVITAGQKGSSRGFEATYNKETTSFHLQKASVQESDSAVYYCALGSYNQGKLIFGQGTKLSIKP
chain 2: DTTVKQNPRYKLARVGKPVNLICSQTMNHDTMYWYQKKPNQAPKLLLFYYDKILNREADTFEKFQSSRPNNSFCSLYIGSAGLEYSAMYLCASSRRLGASQNTLYFGAGTRLSVL
chain 3: not shown
chain 4: B1 chain 4
chain 5: SIINFEKL
Also: test concentration or dose not given here.

In one assay the parent is B1. In words: % of reporter cells activated (NFAT-GFP), raw.
As to chain 5 S1K, the ratio to parent is 0.664.

Regarding chain 5 S1N, the ratio to parent was 0.724.

Turning to chain 5 S1P, the ratio to parent stood at 0.808.

For chain 5 S1C, the ratio to parent worked out at 0.604.

In the case of chain 5 S1G, the ratio to parent was found to be 0.933.

chain 5 S1M: the ratio to parent is 0.954.

Consider chain 5 S1A, for which the ratio to parent stood at 1.02.

chain 5 S1L: the ratio to parent was 0.793.

For the variant chain 5 S1V, the ratio to parent is 0.9.

On to chain 5 S1F, for which the ratio to parent turned out to be 0.805.

With chain 5 S1D, the ratio to parent was 0.911.

For the variant chain 5 S1Y, the ratio to parent came out at 0.97.

Turning to chain 5 S1I, the ratio to parent was determined as 0.745.

For the variant chain 5 S1W, the ratio to parent came to 0.616.

In the case of chain 5 S1Q, the ratio to parent turned out to be 0.983.

Take chain 5 S1R: the ratio to parent was determined as 0.785.

Turning to chain 5 S1E, the ratio to parent amounted to 0.93.

As to chain 5 S1H, the ratio to parent stood at 0.979.

Consider chain 5 N4W, for which the ratio to parent is 0.017.

With chain 5 N4Y, the ratio to parent was 0.0148.

With chain 5 N4I, the ratio to parent was found to be 0.389.

Turning to chain 5 N4C, the ratio to parent was 0.162.

For chain 5 N4P, the ratio to parent amounted to 0.0248.

Regarding chain 5 N4D, the ratio to parent was 0.487.

Take chain 5 N4S: the ratio to parent was determined as 0.271.

Turning to chain 5 N4H, the ratio to parent turned out to be 0.47.

Turning to chain 5 N4M, the ratio to parent was found to be 0.00791.

chain 5 N4T: the ratio to parent is 0.165.

Take chain 5 N4F: the ratio to parent was found to be 0.0275.

As for chain 5 N4A, the ratio to parent came to 0.498.

In the case of chain 5 N4R, the ratio to parent amounted to 0.476.

Regarding chain 5 N4E, the ratio to parent was 0.189.

Take chain 5 N4K: the ratio to parent is 0.566.

On to chain 5 N4G, for which the ratio to parent was found to be 0.182.

Turning to chain 5 N4Q, the ratio to parent worked out at 0.015.

In the case of chain 5 N4V, the ratio to parent turned out to be 0.0259.

Take chain 5 I3V: the ratio to parent was found to be 0.872.

On to chain 5 I3L, for which the ratio to parent was found to be 1.03.

On to chain 5 I3F, for which the ratio to parent is 0.869.

Regarding chain 5 I3Q, the ratio to parent turned out to be 0.902.

Consider chain 5 I3H, for which the ratio to parent was determined as 1.

Regarding chain 5 I3Y, the ratio to parent was determined as 0.966.

Regarding chain 5 I3N, the ratio to parent amounted to 0.961.

For chain 5 I3M, the ratio to parent was 0.99.

Turning to chain 5 I3T, the ratio to parent stood at 0.952.

chain 5 I3E: the ratio to parent worked out at 0.924.

As for chain 5 I3D, the ratio to parent is 0.575.

Regarding chain 5 I3S, the ratio to parent was 0.901.

As for chain 5 I3P, the ratio to parent was determined as 0.927.

As for chain 5 I3W, the ratio to parent was found to be 0.869.

Regarding chain 5 I3C, the ratio to parent is 0.989.

As to chain 5 I3G, the ratio to parent was 0.636.

Consider chain 5 I3R, for which the ratio to parent was 0.775.

With chain 5 I3K, the ratio to parent is 0.851.

With chain 5 I3A, the ratio to parent amounted to 0.872.

On to chain 5 K7Y, for which the ratio to parent was determined as 0.745.

chain 5 K7E: the ratio to parent turned out to be 0.0818.

As to chain 5 K7D, the ratio to parent was determined as 0.141.

On to chain 5 K7V, for which the ratio to parent was determined as 0.788.

Regarding chain 5 K7H, the ratio to parent was 0.997.

Turning to chain 5 K7Q, the ratio to parent is 0.568.

chain 5 K7P: the ratio to parent came out at 0.667.

For the variant chain 5 K7S, the ratio to parent is 0.785.

Consider chain 5 K7I, for which the ratio to parent came out at 0.799.

In the case of chain 5 K7G, the ratio to parent is 0.605.

For the variant chain 5 K7A, the ratio to parent came out at 0.645.

chain 5 K7F: the ratio to parent was determined as 0.261.

With chain 5 K7C, the ratio to parent worked out at 0.374.

chain 5 K7M: the ratio to parent was found to be 0.418.

Consider chain 5 K7L, for which the ratio to parent is 0.785.

As to chain 5 K7T, the ratio to parent worked out at 0.752.

On to chain 5 K7W, for which the ratio to parent worked out at 0.717.

On to chain 5 K7R, for which the ratio to parent was determined as 1.02.

In the case of chain 5 I2F, the ratio to parent worked out at 0.951.

With chain 5 I2R, the ratio to parent is 0.916.

For the variant chain 5 I2C, the ratio to parent was found to be 0.995.

For chain 5 I2Q, the ratio to parent came to 0.904.

Take chain 5 I2A: the ratio to parent is 1.04.

Turning to chain 5 I2L, the ratio to parent turned out to be 1.02.

As for chain 5 I2P, the ratio to parent came out at 0.975.

For the variant chain 5 I2E, the ratio to parent worked out at 0.964.

chain 5 I2G: the ratio to parent is 1.

As to chain 5 I2T, the ratio to parent turned out to be 1.01.

In the case of chain 5 I2N, the ratio to parent was determined as 1.01.

With chain 5 I2D, the ratio to parent worked out at 0.924.

In the case of chain 5 I2K, the ratio to parent was found to be 0.906.

chain 5 I2Y: the ratio to parent came out at 0.814.

chain 5 I2S: the ratio to parent was determined as 1.01.

As to chain 5 I2H, the ratio to parent is 0.926.

Turning to chain 5 I2M, the ratio to parent was 0.976.

As to chain 5 I2W, the ratio to parent turned out to be 0.861.

Take chain 5 F5P: the ratio to parent is 1.03.

Turning to chain 5 F5E, the ratio to parent stood at 0.856.

As for chain 5 F5A, the ratio to parent amounted to 1.05.

For chain 5 F5C, the ratio to parent stood at 1.04.

Turning to chain 5 F5D, the ratio to parent was 0.905.

As for chain 5 F5W, the ratio to parent turned out to be 0.866.

As for chain 5 F5H, the ratio to parent was 0.947.

In the case of chain 5 F5Y, the ratio to parent came to 1.05.

For chain 5 F5V, the ratio to parent worked out at 0.909.

Consider chain 5 F5G, for which the ratio to parent is 0.873.

With chain 5 F5Q, the ratio to parent stood at 0.939.

With chain 5 F5R, the ratio to parent is 0.958.

Regarding chain 5 F5L, the ratio to parent was 1.05.

Regarding chain 5 F5K, the ratio to parent was found to be 0.952.

As to chain 5 F5M, the ratio to parent was 0.981.

On to chain 5 F5T, for which the ratio to parent was 0.964.

On to chain 5 L8A, for which the ratio to parent is 0.819.

Regarding chain 5 L8F, the ratio to parent was 0.826.

Turning to chain 5 L8K, the ratio to parent was determined as 0.901.

chain 5 L8I: the ratio to parent was 0.859.

Regarding chain 5 L8E, the ratio to parent was 0.685.

Turning to chain 5 L8H, the ratio to parent was determined as 1.03.

Turning to chain 5 L8S, the ratio to parent amounted to 0.78.

For chain 5 L8Y, the ratio to parent amounted to 0.976.

Regarding chain 5 L8P, the ratio to parent is 0.996.

As to chain 5 L8C, the ratio to parent worked out at 0.882.

Turning to chain 5 L8R, the ratio to parent worked out at 0.997.

On to chain 5 L8M, for which the ratio to parent amounted to 0.887.

For the variant chain 5 L8N, the ratio to parent was determined as 0.888.

As for chain 5 L8V, the ratio to parent amounted to 0.686.

On to chain 5 L8D, for which the ratio to parent was found to be 0.785.

As to chain 5 L8T, the ratio to parent worked out at 0.783.

For the variant chain 5 L8W, the ratio to parent was determined as 0.734.

As to chain 5 L8Q, the ratio to parent amounted to 0.894.

On to chain 5 E6G, for which the ratio to parent is 0.785.

Consider chain 5 E6A, for which the ratio to parent is 0.845.

With chain 5 E6K, the ratio to parent came to 0.949.

Regarding chain 5 E6F, the ratio to parent came out at 0.226.

With chain 5 E6S, the ratio to parent is 0.641.

Consider chain 5 E6D, for which the ratio to parent came out at 0.964.

chain 5 E6C: the ratio to parent is 0.0832.

In the case of chain 5 E6L, the ratio to parent came out at 0.329.

Consider chain 5 E6W, for which the ratio to parent came to 0.0831.

As for chain 5 E6R, the ratio to parent amounted to 0.936.

Regarding chain 5 E6N, the ratio to parent amounted to 0.884.

For chain 5 E6H, the ratio to parent was 0.59.

Take chain 5 E6T: the ratio to parent came to 0.46.

For the variant chain 5 E6I, the ratio to parent came out at 0.0493.

With chain 5 E6M, the ratio to parent was found to be 0.593.

As for chain 5 E6P, the ratio to parent stood at 0.554.

For the variant chain 5 E6Y, the ratio to parent was 0.366.

Variants of B2 are the subject of the next assay. In words: % of reporter cells activated (NFAT-GFP), raw.
Turning to chain 5 S1A, the ratio to parent was 0.322.

With chain 5 I2M, the ratio to parent turned out to be 0.917.

Consider chain 5 K7Q, for which the ratio to parent was 0.648.

As to chain 5 K7W, the ratio to parent was 0.543.

With chain 5 I3Q, the ratio to parent turned out to be 0.162.

As for chain 5 F5D, the ratio to parent was 0.92.

With chain 5 N4V, the ratio to parent stood at 0.0109.

For the variant chain 5 L8F, the ratio to parent worked out at 0.694.
